From patent publication US20240270806A1

Molecular target: Human IL-12 receptor (human IL-12Rb1 and IL-12Rb2) (human) (UniProt P42701)
Sequence (Q99665 24-862, chain 2 of 2, other chains not shown): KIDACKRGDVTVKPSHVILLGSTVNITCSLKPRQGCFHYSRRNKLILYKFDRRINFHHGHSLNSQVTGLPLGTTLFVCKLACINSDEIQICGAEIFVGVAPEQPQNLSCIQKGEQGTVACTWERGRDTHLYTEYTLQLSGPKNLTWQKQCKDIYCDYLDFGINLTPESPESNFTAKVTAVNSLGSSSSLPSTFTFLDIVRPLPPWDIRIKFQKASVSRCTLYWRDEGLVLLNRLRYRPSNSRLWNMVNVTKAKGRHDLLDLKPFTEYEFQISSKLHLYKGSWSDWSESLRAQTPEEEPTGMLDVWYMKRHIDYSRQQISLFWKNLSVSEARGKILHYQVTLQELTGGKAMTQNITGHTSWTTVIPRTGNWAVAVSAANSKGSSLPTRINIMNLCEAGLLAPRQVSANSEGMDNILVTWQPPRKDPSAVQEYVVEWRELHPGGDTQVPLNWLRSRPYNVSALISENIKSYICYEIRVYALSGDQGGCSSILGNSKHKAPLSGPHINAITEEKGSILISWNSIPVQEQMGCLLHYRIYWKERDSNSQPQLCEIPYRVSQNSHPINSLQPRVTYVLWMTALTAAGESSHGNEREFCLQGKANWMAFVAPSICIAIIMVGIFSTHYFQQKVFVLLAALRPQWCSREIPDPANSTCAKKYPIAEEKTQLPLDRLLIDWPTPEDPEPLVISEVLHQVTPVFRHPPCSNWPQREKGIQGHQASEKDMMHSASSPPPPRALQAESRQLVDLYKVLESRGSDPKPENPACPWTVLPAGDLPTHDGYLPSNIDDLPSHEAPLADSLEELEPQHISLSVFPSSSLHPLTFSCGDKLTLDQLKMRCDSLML

Sequence of rhIL-12 (P29460 23-328 limits assumed): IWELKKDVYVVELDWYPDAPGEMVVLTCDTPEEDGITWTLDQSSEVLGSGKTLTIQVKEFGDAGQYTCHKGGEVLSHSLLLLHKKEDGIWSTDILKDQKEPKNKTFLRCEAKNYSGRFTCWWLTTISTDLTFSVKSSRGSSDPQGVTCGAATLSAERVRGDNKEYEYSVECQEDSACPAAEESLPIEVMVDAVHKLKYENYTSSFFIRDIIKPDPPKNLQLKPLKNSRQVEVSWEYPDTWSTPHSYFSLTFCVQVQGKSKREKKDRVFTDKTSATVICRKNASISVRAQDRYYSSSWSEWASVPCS
Sequence of rhIL-12 (P29459 23-219 limits assumed): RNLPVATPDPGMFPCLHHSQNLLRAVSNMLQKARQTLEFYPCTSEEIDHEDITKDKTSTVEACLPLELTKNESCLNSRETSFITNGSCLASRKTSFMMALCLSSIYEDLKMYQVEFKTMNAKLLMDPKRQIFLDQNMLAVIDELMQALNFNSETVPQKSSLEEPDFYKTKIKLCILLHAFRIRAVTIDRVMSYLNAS

EC50 (read off the curve), IL-12 luciferase reporter assay (+ Protease): 0.2 nM | EC50 (read off the curve), IL-12 luciferase reporter assay (without protease): 0.2 nM
Substance: rhIL-12 (from UniProt P29460 23-328; P29459 23-219) (ligand)
